Reference: patent US20230248800A1

The binders below were run against human V1a receptor (human) (UniProt P37288) (assay: cell-based or functional assay).
human V1a receptor (human), sequence (P37288 whole entry): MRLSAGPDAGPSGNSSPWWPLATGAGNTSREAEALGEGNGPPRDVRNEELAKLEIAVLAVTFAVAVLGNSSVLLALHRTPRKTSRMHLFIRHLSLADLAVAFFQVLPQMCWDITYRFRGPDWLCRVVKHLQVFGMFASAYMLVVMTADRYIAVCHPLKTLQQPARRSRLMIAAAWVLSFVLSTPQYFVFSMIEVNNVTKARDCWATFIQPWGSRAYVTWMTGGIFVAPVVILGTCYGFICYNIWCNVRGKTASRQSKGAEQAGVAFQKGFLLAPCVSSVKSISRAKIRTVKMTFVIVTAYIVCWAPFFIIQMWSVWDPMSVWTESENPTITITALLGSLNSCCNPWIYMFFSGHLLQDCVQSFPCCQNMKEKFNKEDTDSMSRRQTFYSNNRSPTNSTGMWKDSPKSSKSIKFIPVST

Binder	Estimated V1a EC50 (calcium flux)	V1a Highest agonist effect (% of AVP)
XFXNCPXG (Mpa at position 1, disulfide bond between Mpa and Cys; Hgn at position 4; (Gly)5 on the side chain of Lys 8; C-terminal amide) [Mpa-Tyr-Phe-Hgn-Asn-Cys-Pro-Lys(X)a-Gly-NH2; (X)a = (Gly)5 [SEQ ID NO. 12]]	50.1 nM	29.6 % of AVP
XFXNCPXG (Mpa at position 1, disulfide bond between Mpa and Cys; Hgn at position 4; (Gly)6 on the side chain of Lys 8; C-terminal amide) [Mpa-Tyr-Phe-Hgn-Asn-Cys-Pro-Lys(X)a-Gly-NH2; (X)a = (Gly)6 [SEQ ID NO. 13]]	45.9 nM	28.2 % of AVP
XFXNCPXG (Mpa at position 1, disulfide bond between Mpa and Cys; Hgn at position 4; (Gly)9 on the side chain of Lys 8; C-terminal amide) [Mpa-Tyr-Phe-Hgn-Asn-Cys-Pro-Lys(X)a-Gly-NH2; (X)a = (Gly)9 [SEQ ID NO. 16]]	105 nM	28.1 % of AVP
XFXNCPXG (Mpa at position 1, disulfide bond between Mpa and Cys; Hgn at position 4; (Gly)7 on the side chain of Lys 8; C-terminal amide) [Mpa-Tyr-Phe-Hgn-Asn-Cys-Pro-Lys(X)a-Gly-NH2; (X)a = (Gly)7 [SEQ ID NO. 14]]	30.9 nM	26.1 % of AVP
XFXNCPXG (Mpa at position 1, disulfide bond between Mpa and Cys; Hgn at position 4; (Gly)8 on the side chain of Lys 8; C-terminal amide) [Mpa-Tyr-Phe-Hgn-Asn-Cys-Pro-Lys(X)a-Gly-NH2; (X)a = (Gly)8 [SEQ ID NO. 15]]	226 nM	24.8 % of AVP
XFXNCPXG (Mpa at position 1, disulfide bond between Mpa and Cys; Hgn at position 4; (Gly)3 on the side chain of Lys 8; C-terminal amide) [Mpa-Tyr-Phe-Hgn-Asn-Cys-Pro-Lys(X)a-Gly-NH2; (X)a = (Gly)3 [SEQ ID NO. 10]]	53.5 nM	32.9 % of AVP
XFXNCPXG (Mpa at position 1, disulfide bond between Mpa and Cys; Hgn at position 4; (Gly)4 on the side chain of Lys 8; C-terminal amide) [Mpa-Tyr-Phe-Hgn-Asn-Cys-Pro-Lys(X)a-Gly-NH2; (X)a = (Gly)4 [SEQ ID NO. 11]]	161 nM	33.6 % of AVP
XFXNCPXG (Mpa at position 1, disulfide bond between Mpa and Cys; Hgn at position 4; Gly on the side chain of Lys 8; C-terminal amide) [Mpa-Tyr-Phe-Hgn-Asn-Cys-Pro-Lys(X)-Gly-NH2; X = Gly [SEQ ID NO. 8]]	25.3 nM	40.3 % of AVP
XFXNCPXG (Mpa at position 1, disulfide bond between Mpa and Cys; Hgn at position 4; (Gly)2 on the side chain of Lys 8; C-terminal amide) [Mpa-Tyr-Phe-Hgn-Asn-Cys-Pro-Lys(X)a-Gly-NH2; (X)a = (Gly)2 [SEQ ID NO. 9]]	38.2 nM	37 % of AVP
